# B1: ApHh promoter FRE2 probe (dsDNA)
# DNA 1: GATATAGTTTACATGTTTACATGACGGCAGAGA
# DNA 2: TCTCTGCCGTCATGTAAACATGTAAACTATATC
# B2: FRE2 unlabeled competitor (dsDNA)
# DNA 1: B1 DNA 1
# DNA 2: B1 DNA 2
# B3: FRE2 mutant (FRE_m) (dsDNA)
# DNA 1: GATATAGTTTACACACCCGTATGACGGCAGAGA
# DNA 2: TCTCTGCCGTCATACGGGTGTGTAAACTATATC
# B4: ApHh promoter FRE1 probe (dsDNA)
# DNA 1: TTGACTGTAGTATGTAAACATTTCTGAACTCCA
# DNA 2: TGGAGTTCAGAAATGTTTACATACTACAGTCAA
# Assays:
# MBP-ApFoxO DBD [1] = target: T1, MBP-ApFoxO DBD (Acyrthosiphon pisum, UniProt A0A8R1VZ87 89-178); test: EMSA; 0.5 and 5 ug protein; concentration-dependent shift; EMSA: room temperature, 30 min; 6% native PAGE in 0.5x TBE, 60 V, 4 C; binding buffer, salt and pH not stated; conditions: protein: recombinant; tags: N-terminal MBP (pMAL-c2x); label: 5' biotin
# T1 sequence (A0A8R1VZ87 entry or part of it): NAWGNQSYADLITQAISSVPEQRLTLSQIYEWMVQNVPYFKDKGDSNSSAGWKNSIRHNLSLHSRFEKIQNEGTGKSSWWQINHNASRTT
# MBP-ApFoxO DBD [2] = target: T1, MBP-ApFoxO DBD; test: competition; 5x and 25x unlabeled probe vs labeled FRE2; shift greatly reduced; EMSA: room temperature, 30 min; 6% native PAGE in 0.5x TBE, 60 V, 4 C; binding buffer, salt and pH not stated; conditions: protein: recombinant; tags: N-terminal MBP (pMAL-c2x)
# MBP-ApFoxO DBD [3] = target: T1, MBP-ApFoxO DBD; test: EMSA; 0.5 ug protein, 5x labeled mutant probe; EMSA: room temperature, 30 min; 6% native PAGE in 0.5x TBE, 60 V, 4 C; binding buffer, salt and pH not stated; conditions: protein: recombinant; tags: N-terminal MBP (pMAL-c2x); label: 5' biotin
# MBP-ApFoxO DBD [4] = target: T1, MBP-ApFoxO DBD; test: EMSA; 0.5 and 5 ug protein; EMSA: room temperature, 30 min; 6% native PAGE in 0.5x TBE, 60 V, 4 C; binding buffer, salt and pH not stated; conditions: protein: recombinant; tags: N-terminal MBP (pMAL-c2x); label: 5' biotin
binder,measurement,setting,value
B1,binding result,MBP-ApFoxO DBD [1],binds
B2,binding result,MBP-ApFoxO DBD [2],binds
B3,binding result,MBP-ApFoxO DBD [3],no binding
B4,binding result,MBP-ApFoxO DBD [4],no binding

# From paper PMC12145829, “The maternal vGluT2 and embryonic mGluR3 signaling relay system controls offspring wing dimorphism in pea aphid”
